For test [1], the target named is T1, cynomolgus (monkey) LILRB2 expressed on CHO cells (cynomolgus monkey).
T1 construct: whole, on cells; Putative orthologue; also called cynoLILRB2; cynoRB2
Description: flow cytometry on CHO-cynoLILRB2 cells. (In general: Flow cytometry measures light scatter and fluorescence of single cells or particles in a stream.)

The target of test [2] is T1, cynomolgus (monkey) LILRB2 expressed on …. Put plainly: flow cytometry on CHO-cynoLILRB2 cells, non-linear fit of the curves of FIG. 26D.
In test [3] the target is T2, LILRB3 expressed on cells (human, UniProt O75022 24-631).
T2 construct: whole, on cells; Expressed with a GFP tag from the bought plasmid; also called human LILRB3; CHO-LILRB3
Put plainly: flow cytometry on CHO-LILRB3 cells, non-linear fit of the curves of FIG. 26C.

The target in test [4] is T3, human LILRB1 expressed on cells (human, UniProt Q8NHL6 24-650).
T3 construct: In 293T cells it was expressed from pCMV3-LILRB1-GFP; also called CHO-LILRB1; Jurkat-LILRB1
Description: flow cytometry, Jurkat-LILRB1 cells.

Test [5] deals with T4, human LILRB2 expressed on cells (human, UniProt Q8N423 22-597).
T4 construct: In 293T cells it was expressed from pCMV3-LILRB2-GFP; also called CHO-LILRB2; Jurkat-LILRB2
Put plainly: flow cytometry, CHO-LILRB2 cells.

Test [6] deals with T5, LILRA5 expressed on 293T cells (UniProt A6NI73 42-299, limits assumed).
T5 construct: whole, on cells; GFP-tagged, transient
Description: flow cytometry on 293T cells transiently expressing LILRA5, APC anti-human Fc; gMFI as fold to IgG staining.

Test [7] has as its target T6, LILRB5 expressed on 293T cells (UniProt O75023 24-590, limits assumed).
T6 construct: whole, on cells; GFP-tagged, transient
Put plainly: flow cytometry on 293T cells transiently expressing LILRB5, APC anti-human Fc; gMFI as fold to IgG staining.

Test [8] addresses T3, human LILRB1 expressed on cells. Description: flow cytometry on CHO-LILRB1 cells, non-linear fit of the curves of FIG. 26A.
Test [9] has the same target. Description: flow cytometry, CHO-LILRB1 cells.
For test [10], the target named is T7, LILRA6 expressed on cells (human, UniProt Q6PI73 24-481).
T7 construct: whole, on cells; GFP-tagged; also called human LILRA6; CHO-LILRA6
Put plainly: flow cytometry on CHO-LILRA6 cells, non-linear fit of the curves of FIG. 26F.

For test [11], the target named is T3, human LILRB1 expressed on cells. Description: flow cytometry, CHO-LILRB1 cells; blocked ligand: APC HLA-G trimer tetramer.
For test [12], the target named is T8, LILRA2 expressed on 293T cells (UniProt Q8N149 24-483, limits assumed).
T8 construct: whole, on cells; GFP-tagged, transient
Put plainly: flow cytometry on 293T cells transiently expressing LILRA2, APC anti-human Fc; gMFI as fold to IgG staining.

In test [13] the target is T9, LILRA4 expressed on 293T cells (UniProt P59901 24-499, limits assumed).
T9 construct: whole, on cells; GFP-tagged, transient
Put plainly: flow cytometry on 293T cells transiently expressing LILRA4, antibody 5 µg/mL, APC anti-human Fc; gMFI as fold to IgG staining.

The target of test [14] is T3, human LILRB1 expressed on cells. Description: flow cytometry on CHO-LILRB1 cells (CHO-RB1), titrated antibody, labelled anti-human Fc, gMFI.
The target in test [15] is T4, human LILRB2 expressed on cells. Description: flow cytometry on CHO-LILRB2 cells, non-linear fit of the curves of FIG. 26B.
Test [16] has as its target T3, human LILRB1 expressed on cells. Put plainly: flow cytometry, CHO-LILRB1 cells. This is another data set of the same source.
Test [17] addresses T10, LILRB2-ECD-HIS (SinoBiological Cat #: 14132-H02H) (human, UniProt Q8N423 22-460).
T10 construct: Bought protein; also called monomeric antigen LILRB2-ECD-HIS; not shown: His tag
Put plainly: SPR (Carterra), LILRB2-ECD-his.

The target in test [18] is T10, LILRB2-ECD-HIS (SinoBiological Cat #: …). Put plainly: BLI (Gator), RB2-ECD-his.

T3 sequence (Q8NHL6 other isoform, or with tags, fused parts or gaps limits assumed): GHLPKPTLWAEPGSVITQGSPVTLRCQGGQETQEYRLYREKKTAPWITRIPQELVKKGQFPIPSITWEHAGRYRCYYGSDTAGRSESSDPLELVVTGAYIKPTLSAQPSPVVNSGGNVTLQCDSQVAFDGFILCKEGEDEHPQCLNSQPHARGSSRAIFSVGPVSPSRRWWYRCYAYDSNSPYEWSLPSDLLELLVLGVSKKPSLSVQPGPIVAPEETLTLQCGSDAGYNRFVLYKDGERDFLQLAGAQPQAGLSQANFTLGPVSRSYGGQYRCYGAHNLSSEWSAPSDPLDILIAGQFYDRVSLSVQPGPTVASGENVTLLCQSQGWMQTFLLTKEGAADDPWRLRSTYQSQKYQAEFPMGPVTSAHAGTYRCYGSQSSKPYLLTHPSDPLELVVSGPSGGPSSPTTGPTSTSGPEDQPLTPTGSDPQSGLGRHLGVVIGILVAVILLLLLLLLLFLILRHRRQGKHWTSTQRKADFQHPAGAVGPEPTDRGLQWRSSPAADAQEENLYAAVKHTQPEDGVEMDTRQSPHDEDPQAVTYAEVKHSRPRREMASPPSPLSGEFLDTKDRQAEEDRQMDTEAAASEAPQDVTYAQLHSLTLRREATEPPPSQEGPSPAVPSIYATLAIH
T4 sequence (Q8N423 other isoform, or with tags, fused parts or gaps limits assumed): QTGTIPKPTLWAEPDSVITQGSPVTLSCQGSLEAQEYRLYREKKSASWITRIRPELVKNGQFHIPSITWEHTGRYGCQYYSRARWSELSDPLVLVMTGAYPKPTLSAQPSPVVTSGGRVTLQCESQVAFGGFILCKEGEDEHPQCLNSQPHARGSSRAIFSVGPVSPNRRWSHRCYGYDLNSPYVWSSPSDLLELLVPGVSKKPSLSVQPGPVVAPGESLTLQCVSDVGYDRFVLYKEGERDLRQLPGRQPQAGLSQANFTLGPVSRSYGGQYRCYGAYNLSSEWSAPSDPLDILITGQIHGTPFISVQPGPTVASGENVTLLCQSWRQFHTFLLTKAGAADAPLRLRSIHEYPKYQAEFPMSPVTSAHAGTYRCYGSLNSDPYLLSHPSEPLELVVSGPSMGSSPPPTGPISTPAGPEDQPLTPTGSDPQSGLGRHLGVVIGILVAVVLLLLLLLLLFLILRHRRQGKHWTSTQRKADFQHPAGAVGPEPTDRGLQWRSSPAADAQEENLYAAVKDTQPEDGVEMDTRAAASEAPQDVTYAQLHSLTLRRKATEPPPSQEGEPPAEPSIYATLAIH
T10 sequence (Q8N423 other isoform, or with tags, fused parts or gaps H02H H02H): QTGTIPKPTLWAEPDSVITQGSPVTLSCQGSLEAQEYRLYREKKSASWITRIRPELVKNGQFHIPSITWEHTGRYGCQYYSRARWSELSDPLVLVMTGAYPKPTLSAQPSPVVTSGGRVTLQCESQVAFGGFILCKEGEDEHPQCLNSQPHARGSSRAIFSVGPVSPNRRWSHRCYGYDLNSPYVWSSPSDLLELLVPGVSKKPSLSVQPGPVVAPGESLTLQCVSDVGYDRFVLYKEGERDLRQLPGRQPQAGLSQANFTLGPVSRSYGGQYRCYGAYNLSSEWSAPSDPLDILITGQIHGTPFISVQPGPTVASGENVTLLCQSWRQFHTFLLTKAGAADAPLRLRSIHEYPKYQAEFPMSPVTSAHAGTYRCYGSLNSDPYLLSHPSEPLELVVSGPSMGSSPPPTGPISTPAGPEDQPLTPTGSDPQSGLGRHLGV
T5 sequence (A6NI73 42-299 limits assumed): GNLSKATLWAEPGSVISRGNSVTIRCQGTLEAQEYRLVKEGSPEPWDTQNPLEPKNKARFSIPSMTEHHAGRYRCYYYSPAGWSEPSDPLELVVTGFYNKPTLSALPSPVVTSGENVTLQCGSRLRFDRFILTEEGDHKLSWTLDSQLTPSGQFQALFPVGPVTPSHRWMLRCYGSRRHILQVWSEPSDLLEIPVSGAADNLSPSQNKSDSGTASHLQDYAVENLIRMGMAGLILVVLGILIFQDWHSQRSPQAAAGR
T9 sequence (P59901 24-499 limits assumed): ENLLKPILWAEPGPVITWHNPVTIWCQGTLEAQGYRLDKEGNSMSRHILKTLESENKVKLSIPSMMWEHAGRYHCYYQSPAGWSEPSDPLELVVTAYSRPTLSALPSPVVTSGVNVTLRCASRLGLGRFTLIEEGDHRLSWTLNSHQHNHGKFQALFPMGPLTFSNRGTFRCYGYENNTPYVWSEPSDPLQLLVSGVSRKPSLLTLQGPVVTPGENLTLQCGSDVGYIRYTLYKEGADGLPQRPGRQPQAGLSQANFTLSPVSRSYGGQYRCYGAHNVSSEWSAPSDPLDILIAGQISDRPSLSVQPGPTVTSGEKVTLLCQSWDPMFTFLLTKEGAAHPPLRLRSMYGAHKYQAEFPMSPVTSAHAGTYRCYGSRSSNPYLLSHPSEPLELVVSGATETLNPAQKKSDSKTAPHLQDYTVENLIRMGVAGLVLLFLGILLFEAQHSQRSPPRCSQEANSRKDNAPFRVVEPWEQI
T8 sequence (Q8N149 24-483 limits assumed): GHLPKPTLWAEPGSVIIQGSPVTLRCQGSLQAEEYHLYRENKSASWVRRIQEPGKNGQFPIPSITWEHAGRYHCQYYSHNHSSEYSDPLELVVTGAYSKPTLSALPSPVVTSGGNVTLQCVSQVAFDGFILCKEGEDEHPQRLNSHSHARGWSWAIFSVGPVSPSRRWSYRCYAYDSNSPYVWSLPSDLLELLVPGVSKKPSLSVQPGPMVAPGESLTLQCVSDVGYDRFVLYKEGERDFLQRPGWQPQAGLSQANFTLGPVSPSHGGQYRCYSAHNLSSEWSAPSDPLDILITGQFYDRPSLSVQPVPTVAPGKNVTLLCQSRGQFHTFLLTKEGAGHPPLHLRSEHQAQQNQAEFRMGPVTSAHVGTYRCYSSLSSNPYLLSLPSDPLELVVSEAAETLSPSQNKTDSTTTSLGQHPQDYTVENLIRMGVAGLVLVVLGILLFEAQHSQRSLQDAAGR
T6 sequence (O75023 24-590 limits assumed): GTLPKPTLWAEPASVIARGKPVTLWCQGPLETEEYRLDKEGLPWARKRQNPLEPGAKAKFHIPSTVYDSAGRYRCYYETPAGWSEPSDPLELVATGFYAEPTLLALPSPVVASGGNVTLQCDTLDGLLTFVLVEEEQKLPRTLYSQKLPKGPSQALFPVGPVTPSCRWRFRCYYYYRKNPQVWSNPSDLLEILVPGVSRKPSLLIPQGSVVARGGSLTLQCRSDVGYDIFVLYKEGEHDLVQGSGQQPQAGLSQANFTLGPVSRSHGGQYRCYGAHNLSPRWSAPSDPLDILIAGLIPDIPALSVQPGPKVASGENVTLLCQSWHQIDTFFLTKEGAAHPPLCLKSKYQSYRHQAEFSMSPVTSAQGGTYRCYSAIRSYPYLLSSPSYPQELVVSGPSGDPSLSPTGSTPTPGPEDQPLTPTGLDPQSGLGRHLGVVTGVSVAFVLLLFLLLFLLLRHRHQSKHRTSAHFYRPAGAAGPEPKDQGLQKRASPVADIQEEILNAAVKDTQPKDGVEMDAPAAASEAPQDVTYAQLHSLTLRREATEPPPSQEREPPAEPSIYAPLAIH
T7 sequence (Q6PI73 24-481): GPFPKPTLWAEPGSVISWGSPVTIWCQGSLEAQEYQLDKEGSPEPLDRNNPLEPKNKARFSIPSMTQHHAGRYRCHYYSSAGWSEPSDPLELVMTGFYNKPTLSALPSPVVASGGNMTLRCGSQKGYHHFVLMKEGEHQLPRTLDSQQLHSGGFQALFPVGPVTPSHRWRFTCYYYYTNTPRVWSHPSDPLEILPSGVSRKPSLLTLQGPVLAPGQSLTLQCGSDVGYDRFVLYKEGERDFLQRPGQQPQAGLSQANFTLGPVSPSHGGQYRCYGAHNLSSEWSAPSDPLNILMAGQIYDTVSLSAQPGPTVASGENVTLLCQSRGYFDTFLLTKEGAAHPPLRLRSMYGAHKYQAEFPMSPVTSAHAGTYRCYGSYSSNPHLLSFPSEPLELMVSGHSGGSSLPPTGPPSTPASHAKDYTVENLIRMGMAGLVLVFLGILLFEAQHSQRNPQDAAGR

B1: D2M002-002 (antibody, V domains shown)
VH: EVQLQQSGPELVKPGASVKMSCKASGYTFTRYVMHWVKQKPGQGLEWIGYINPNNDGTKYNEKFKGKVTLTSDKSSSTAYMELSSLTSEDSAVYYCARGDLEILPYYDHARNAMDYWGQGTSVTVSS
VL: DVQMIQSPASLSASVGETVTITCRASENIYSYLAWYQQKQGKSPQLLVYNAKTLAEGVPSRFSGSGSGTQFSLKINSLQPEDFGSYYCQHFWSTPPTFGGGTKLEIK
notes: Hit from immunised mice; also called clone #2; anti-LILRB1/2 clone #2
With B1, the EC50 (as a rule, the concentration needed to bring the measured effect to its halfway point) is 5.5 µg/mL in test [1]; 2.85 µg/mL in [2]; 12.8 µg/mL in test [3]; 0.754 µg/mL in [4]; 0.21 µg/mL in test [5]; 0.218 µg/mL in test [8]. The EC50 was found to be 0.439 µg/mL in test [9], 9.46 µg/mL in test [10], 0.128 µg/mL in [15] and 0.326 µg/mL in test [16]. The “gMFI (max)” value in test [5] turned out to be 21900; in [9], 35700. Further, the binding result in test [6] is “no binding (tested: 5 µg/mL)”; in test [7] it was “no binding (tested: 5 µg/mL)”; in test [12], “no binding (tested: 5 µg/mL)”; in test [13] it was “binds”. Further, the MaxMFI was 110000 in [8] and 32600 in test [15]. For the same molecule, in test [11], the IC50 – broadly, the concentration at which inhibition is half-maximal – came to 0.208 µg/mL. For the same molecule, the EC50 (read off the curve) (commonly the concentration that produces a half-maximal response) in test [14] was around 0.2 µg/mL. The Kd (commonly a measure of binding affinity in units of concentration) was found to be 0.44 nM in test [17] and 0.469 nM in test [18]. Further, the koff (in general, the first-order rate constant of dissociation) in test [17] was found to be 0.0002 s⁻¹. Moreover, the kon (as a rule, the rate constant with which the complex forms) in [17] was found to be 456000 M⁻¹ s⁻¹.

Source of the values: US20250171534A1 (D2M BIOTHERAPEUTICS, published 2025).
